In article PMC12366243, “Genomic context analysis enables the discovery of an unusual NAD‐dependent racemase in phosphonate catabolism” (The Febs Journal, 2025):
Values belong to the molecule of their own block, whether it stands above or below them.

Legend:
[1] = target: 2-amino-1-hydroxyethylphosphonate racemase (PbfF) from Mesorhizobium plurifarium (Mesorhizobium plurifarium); test: SEC; analytical SEC, data not shown; 50 uL of 108 uM PbfF (monomer concentration) on Superdex 200 Increase 5/150 GL; 50 mM Tris, 200 mM NaCl, pH 7.9; 0.3 mL/min; calibrated with proteins of known molecular mass
[2] = target: T1, PbfF (2-amino-1-hydroxyethylphosphonate racemase; HAEP racemase) (Mesorhizobium plurifarium, UniProt A0A090EUR6); test: continuous coupled assay (PbfA, PhnX, NADP-dependent ADH), NADPH decrease at […] nm; format: biochemical
T1 construct: full-length, codon-optimized synthetic gene in pET24-C-His-tag (NdeI/NotI), C-terminal His tag kept; E. coli Tuner (DE3)
T1 sequence (A0A090EUR6 1-336): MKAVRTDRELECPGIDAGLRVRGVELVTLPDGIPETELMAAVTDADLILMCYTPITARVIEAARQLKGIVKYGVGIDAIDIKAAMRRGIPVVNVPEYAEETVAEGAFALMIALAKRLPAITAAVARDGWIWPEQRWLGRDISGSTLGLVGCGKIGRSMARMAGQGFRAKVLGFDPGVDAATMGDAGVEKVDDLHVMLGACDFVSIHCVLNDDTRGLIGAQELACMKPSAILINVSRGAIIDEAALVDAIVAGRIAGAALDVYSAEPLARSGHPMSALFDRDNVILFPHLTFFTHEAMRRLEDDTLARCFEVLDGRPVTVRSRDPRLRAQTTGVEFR

NC[C@@H](O)P(=O)(O)O = tested on: T2, NC[C@@H](O)P(=O)(O)O; test: purified protein; format: biochemical, Mesorhizobium plurifarium; details: 1 mM NAD+, 5 mM MgCl2, 50 mM TEA-HCl pH 8.0, 25 °C, S-HAEP to R-HAEP
T2 construct: full-length, codon-optimized synthetic gene in pET24-C-His-tag (NdeI/NotI), C-terminal His tag kept; E. coli Tuner (DE3)

[3] = tested on: T3, NC(=O)c1ccc[n+]([C@@H]2O[C@H](COP(=O)(O)OP(=O)(O)OC[C@H]3O[C@@H](n4cnc5c(N)ncnc54)[C@H](O)[C@@H]3O)[C@@H](O)[C@H]2O)c1; test: purified protein; format: biochemical, Mesorhizobium plurifarium; details: 1 mM S-HAEP, 5 mM MgCl2, 50 mM TEA-HCl pH 8.0, 25 °C, exogenous NAD+, varied: cofactor
T3 construct: full-length, codon-optimized synthetic gene in pET24-C-His-tag (NdeI/NotI), C-terminal His tag kept; E. coli Tuner (DE3)

stoichiometry N [1]: 2
Molecule: 2-amino-1-hydroxyethylphosphonate racemase (PbfF) from Mesorhizobium plurifarium (enzyme)

inhibition at 60 µM [2]: ~50%
Molecule: NC(=O)C1=CN([C@@H]2O[C@H](COP(=O)(O)OP(=O)(O)OC[C@H]3O[C@@H](n4cnc5c(N)ncnc54)[C@H](O)[C@@H]3O)[C@@H](O)[C@H]2O)C=CC1 [NADH]

Molecule: PbfF (2-amino-1-hydroxyethylphosphonate racemase; HAEP racemase) (Mesorhizobium plurifarium)
Km (NC[C@@H](O)P(=O)(O)O): 530 µM
kcat (NC[C@@H](O)P(=O)(O)O): 6.6 s⁻¹
K0.5 [3]: 200 µM
